The results in this text go back to US20190225979A1.

In the test the target is fetuin.

For the substance “recombinant protein of H5 hemagglutinin ectodomain (H5HA)”, the absorbance at 450 nm came to 0.15 O.D. 450.
